According to PMC10933150:

Key:
[1] = molecular target: α7-mCherry (human α7 nicotinic acetylcholine receptor subunit with mCherry in the M3-M4 cytoplasmic loop) (human) (UniProt P36544)
[2] = molecular target: α7-mCherry (human α7 nicotinic acetylcholine receptor subunit with mCherry in the M3-M4 cytoplasmic loop) (human) (UniProt P36544); remark: listed apart in the source
[3] = molecular target: α7-mCherry (human α7 nicotinic acetylcholine receptor subunit with mCherry in the M3-M4 cytoplasmic loop) (human) (UniProt P36544); test: FRET or BRET; acceptor photobleaching FRET (apFRET) by confocal microscopy in live HEK293 cells 2 days after transfection; eGFP donor, mCherry acceptor; region of interest in the ER; in DMEM at 37 °C and 5% CO2

Sequence of UniProt P36544 (P36544 23-502): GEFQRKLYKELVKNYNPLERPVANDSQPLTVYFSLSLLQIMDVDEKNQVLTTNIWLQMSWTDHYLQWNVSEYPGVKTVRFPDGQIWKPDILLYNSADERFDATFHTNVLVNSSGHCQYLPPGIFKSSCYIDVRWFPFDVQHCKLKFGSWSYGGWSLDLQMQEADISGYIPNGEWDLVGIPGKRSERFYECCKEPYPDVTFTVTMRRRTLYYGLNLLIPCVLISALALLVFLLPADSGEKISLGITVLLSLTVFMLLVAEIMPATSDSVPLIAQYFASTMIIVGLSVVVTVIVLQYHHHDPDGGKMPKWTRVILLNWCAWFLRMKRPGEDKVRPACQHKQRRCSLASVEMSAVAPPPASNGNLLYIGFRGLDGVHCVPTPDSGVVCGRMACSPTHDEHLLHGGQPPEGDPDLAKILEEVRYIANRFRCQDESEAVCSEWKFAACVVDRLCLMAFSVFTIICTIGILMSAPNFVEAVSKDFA

| fold decrease in amplitude of maximal currents elicited by 1 mM acetylcholine in Xenopus oocytes (level of functional α7 nAChR); untagged α7 and RIC3G88R, tagged constructs gave the same pattern (data not shown) [2] [fold] | FRET efficiency (EF) [3] [%] | Substance | ^125I-α-bungarotoxin binding to intact HEK293 cells (cell surface α7), decrease with eGFP-RIC3G88R against eGFP-RIC3WT, α7:RIC3 cDNA 1:1 or 5:1 [1] [%] |
| --- | --- | --- | --- |
| 1.5 | 10.7 | eGFP-RIC3G88R (RIC3 variant G88R with eGFP fused to the N-terminus) (from UniProt Q7Z5B4-5 29-368) (natural protein) | 50 |
| – | 7.24 | eGFP-RIC3WT (wild-type RIC3 with eGFP fused to the N-terminus) (from UniProt Q7Z5B4-5 29-368) (natural protein) | – |
